From the RNAGym collection of RNA variant scans (doi:10.1073/pnas.2313332121) come the findings set out here.

This sample holds only a part of the variants without activity.

Sequences and labels used below:
B1: TPR 5TU (parent)
chain: GGAUCUUCUCGAUCUAACAAAAAAGACAAAUCUGCCACAAAGCUUGAGAGCAUCUUCGGAUGCAGAGGCGGCAGCCUUCGGUGGCGCGAUAGCGCCAACGUUCUCAACUAUGACACGCAAAACGCGUGCUCCGUUGAAUGGAGUUUAUCAUG

The series covers variants of B1. Nature of the series: polymerase ribozyme fitness, log enrichment relative to wild type (log ratio); higher = more active; in vitro selection for triplet polymerase activity. The essentials:
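One round of in vitro selection, in triplicate, was applied to PCR-built, transcribed mutant libraries of each subunit of a heterodimeric triplet polymerase ribozyme. The steps were annealing with a biotinylated primer, partner subunit and triplets, incubation frozen at −7 °C, gel excision of extended constructs, streptavidin-bead capture and RT-PCR. Fitness is the logarithm, base 2, of genotype enrichment over wild-type enrichment from inverse-variance-weighted replicate averages of Illumina-sequenced inputs and outputs, keeping genotypes with ≥10 input reads and ≥1 read per output.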
On to GGAUCUUCUCGAUCUAACAAAAAAGACAAAUCUGCCACAAAGCUUGCGAGCAUCUUAGGAUGCAGAGGCGGCAGCCUUCGGUGGCGCGAUAGCGCCAACGUUCUAAACUAUGACACGCAAAACGCAUGCUCCGUUGAAUGGAGUUUAUCAUG [A47C C57A C105A G126A], for which the “polymerase ribozyme fitness (log ratio)” value is -3.51.

For the variant GGAUCUUCUCGAUCUAACAAAAAAGACAAAUCUGCCACAAAGCUUGCGAGUAUUUUCGGAUGCAGAGGCGGCCGCCUUCGGUGGCGCGAUAGCGCCAACGUUCUCAACUAUGACACGCAAAUCGCGUGCUCCGUUGAAUGGAGUUUAUCAUG [A47C C51U C54U A73C A122U], the “polymerase ribozyme fitness (log ratio)” value is not above -4.2.

With GGAUCUUCUCGAUCUAACAAAAAAGACAAAUCUGCCACAAAGCUUGCGAGCAUCUUUGGAUGCAGAGGCGGCAGCCUUAGGUGGCGCGAUAGCACCAACGUUCUCAACUAUGACACGCAAAACGCGUGCUCCGUUGAAUGGAGUUUAUCAGG [A47C C57U C79A G94A U151G], the “polymerase ribozyme fitness (log ratio)” value is not above -4.2.

Consider GGAUCUUCUCGAUCUAACAAAAAAGACAAAUCUGCCACAAAGCUUUAGAGCAUCUUCGGAUGCAGAGGCGGCAGCCUUCGGUGGCGCGAUAGCGCCAAUGUUCUCAACUAUGACACGCAAAACGCGUGCUCCGUUGAAUGGAGUUUAUCAUG [G46U C99U], for which the “polymerase ribozyme fitness (log ratio)” value was -1.06.

In the case of GGAUCUUCUCGAUCUAACAAAAAAGACAAAUCUGCCACAAAGCUUGCGAGCAUCUUCGGAUGCAGAGGAGGCAGCCUUCGGUGGCGUGAUAGCGCCAACUUUCUCAACUAUGACACGCAAGACGCGUGCUCCGUUGAAUGGAUUUUAUCAUG [A47C C69A C87U G100U A121G G143U], the “polymerase ribozyme fitness (log ratio)” value is not above -4.2.

Consider GGAUCUUCUCGAUCUAACAAAAAAGACAAAUCUGCCACAAAGCUUUAGAGCAUCUUCGGAUGCAGAGGCGGCAGCCUUCGGUAGCGCGAUAGCGCCAACGUUCUCAACUAUGACACGCAAAACGCGUGCUCCGUUGAAUGGACUUUAUCAUG [G46U G83A G143C], for which the “polymerase ribozyme fitness (log ratio)” value was -4.16.

In the case of GGAUCUUCUCGAUCUAACAAAAAAGACAAAUCUGCCACAAAGCUUGCGAGCAUCUUAGGAUGCAGAGGCGGCAGCCUUCGGUGACGCGAUAGCGCCAACGCUCUCAACUAUGACACGCAAAACGCGUGCUCCGUUGAAUGGAGUUUAUCAUG [A47C C57A G84A U101C], the “polymerase ribozyme fitness (log ratio)” value is -0.765.

For GGAUCUUCUCGAUCUAACAAAAAAGACAAAUCUGCCACAAAGCUUGCGAGCUUCUUCGGAUGCAGAGGCGGCAGCCUUCGGAGGCGCGAUAGCGCCAACGUUCUCAACUAUGACACGCAUAACGCGUGCUCCGUUGAAUGGAGUUUAUCAUG [A47C A52U U82A A120U], the “polymerase ribozyme fitness (log ratio)” value was -1.94.

For the variant GGAUCUUCUCGAUCUAACAAAAAAGACAAAUCUGCCACAAAGCUUUAGAGCAUCUUCGGAUGCAGAGGCGGCAGCCUUCGGUUGCGCGAUAGCGCCAACGUUCUCAACUAUGACACGCUAAAAGCGUGCUCCGUUGAAUGGAGUCUAUCAUG [G46U G83U A119U C123A U145C], the “polymerase ribozyme fitness (log ratio)” value was -3.34.

Turning to GGAUCUUCUCGAUCUAACAAAAAAGACAAAUCUGCCACAAAGCUUGCGAGCAUCUUAGGAUGCAGAGGCGGCAGCCUUCGGUGGCGCGAUAGCGCCAACGUUCUCAACUAUGACACGCAAAACGCGUGCUCCGUUGAAUGGAGUUUAUCAUG [A47C C57A], the “polymerase ribozyme fitness (log ratio)” value was -0.176.

In the case of GGAUCUUCUCGAUCUAACAAAAAAGACAAAUCUGCCACAAAGCUUGCGAGCAUCUUCGGAUGCAGAGGCGGCUGCCUUCGGUGGCGCGAUAGCGCCAACGUUCUCAACUAUGACACGCAAAACCCGUGCUCCGUUGAAUGGAGUUUAUCAUG [A47C A73U G124C], the “polymerase ribozyme fitness (log ratio)” value was -3.78.

GGAUCUUCUCGAUCUAACAAAAAAGACAAAUCUGCCACAAAGCUUGCGAGCAUCUUCGGAUGCAGAGGCGGGAGCCUUCGGUUGCGCGAUAGCGCCAACGUUCUCAACUAUGACACGCAAAACGCGUGCUCCGUUGAAUGGGGUUUAUCAUG [A47C C72G G83U A142G]: the “polymerase ribozyme fitness (log ratio)” value was not above -4.2.

GGAUCUUCUCGAUCUAACAAAAAAGACAAAUCUGCCACAAAGCUUGCGAGCAUCUUGCGAUGCAGAGGCGGCAGCCUUCGGUGGCGCGAUAGCGCCAACGUUCUCAACUAUGACACGCAAAACGCGUGCUCCGUUGAAUGGAGUUUAUCAUG [A47C C57G G58C]: the “polymerase ribozyme fitness (log ratio)” value was determined as 0.275.

Turning to GGAUCUUCUCGAUCUAACAAAAAAGACAAAUCUGCCACAAAGCUUGCGAGCAUCUUCGGAUGCAGAGGAGGCAGCCUUCGGUGGCGCGGUAGCGCCAACGUUCUCAACUAUGACACGCAAAACACGUGCUCCGUUGAAUGGAGUUUAUCAUG [A47C C69A A89G G124A], the “polymerase ribozyme fitness (log ratio)” value is -3.28.

For GGAUCUUCUCGAUCUAACAAAAAAGACAAAUCUGCCACAAAGCUUUAGAGCAUCUUCGGAUGCAGAGGCGGCAGCCUUCGGUGGCGCGAUCGCGCCAACGUUCUUAACUAUGAUACGCAAAACGCGUGCUCCGUUGAAUGGAGUUGAUCAUG [G46U A91C C105U C114U U146G], the “polymerase ribozyme fitness (log ratio)” value was not above -4.2.

Regarding GGAUCUUCUCGAUCUAACAAAAAAGACAAAUCUGCCACAAAGCUUUAGAGCAUCUUCGGAUGCAGAGGCGGCAGCCUUCGGUGGCGCGAUAGCGCCAACGUUCUCAACUAUGACACGCACAACGCGUGCUCCGUUGAAUGGAGUUUAUCAUG [G46U A120C], the “polymerase ribozyme fitness (log ratio)” value was -0.32.

As to GGAUCUUCUCGAUCUAACAAAAAAGACAAAUCUGCCACAAAGCUUGCGAGUAUUUUCGGAUGCAGAGGCGGUAGCCUUCGGUGUCGCGAUAGCGCCAACGUUCUCAACUAUGACACGCAAAACGCGUGCUCCGUUGAAUGGAGUUUAUCAUG [A47C C51U C54U C72U G84U], the “polymerase ribozyme fitness (log ratio)” value was -3.18.

For GGAUCUUCUCGAUCUAACAAAAAAGACAAAUCUGCCACAAAGCUUUAGAGCAUCUUCGGAUGCAGAGGCGGCAGCCUUCGGUGGAGCGAUAGCGCCAACGUUCUCAACUAUGACACGCAAAACGCGUGCUCCGUUGAAUGGAGUUUAUCAUG [G46U C85A], the “polymerase ribozyme fitness (log ratio)” value is -2.02.

With GGAUCUUCUCGAUCUAACAAAAAAGACAAAUCUGCCACAAAGCUUGCGAGCAUCUUCGGAUGCAGAGGCGGCAGGCAUCGGUGGCGCAAUAGCGCCAACGUUCUCUACUAUGACACGCAAAACGCGUGCUCCGUUGAAUGGAGUUUAUCAUG [A47C C75G U77A G88A A106U], the “polymerase ribozyme fitness (log ratio)” value is not above -4.2.
